Test results published in patent US20230048960A1 (University of Washington, published 2023).
Square brackets hold non-standard residues; d marks the D form.

B1: AP503m (peptide)
peptide: Ac-RGN[dW]N[dE]S[dK]MNEYYGW[dM]L[dM]T[dC]MGR-NH2
SMILES: CSCC[C@H](NC(=O)[C@@H](CCCCN)NC(=O)[C@H](CO)NC(=O)[C@@H](CCC(=O)O)NC(=O)[C@H](CC(N)=O)NC(=O)[C@@H](Cc1c[nH]c2ccccc12)NC(=O)[C@H](CC(N)=O)NC(=O)CNC(=O)[C@H](CCCNC(=N)N)NC(C)=O)C(=O)N[C@@H](CC(N)=O)C(=O)N[C@@H](CCC(=O)O)C(=O)N[C@@H](Cc1ccc(O)cc1)C(=O)N[C@@H](Cc1ccc(O)cc1)C(=O)NCC(=O)N[C@@H](Cc1c[nH]c2ccccc12)C(=O)N[C@H](CCSC)C(=O)N[C@@H](CC(C)C)C(=O)N[C@H](CCSC)C(=O)N[C@H](C(=O)N[C@H](CS)C(=O)N[C@@H](CCSC)C(=O)NCC(=O)N[C@@H](CCCNC(=N)N)C(N)=O)[C@@H](C)O
B2: AP537m (peptide)
peptide: Ac-RGE[dL]N[dY]F[dW]MNECYGW[dT]M[dN]M[dR]MGK-NH2
SMILES: CSCC[C@H](NC(=O)[C@@H](CCCNC(=N)N)NC(=O)[C@H](CCSC)NC(=O)[C@@H](CC(N)=O)NC(=O)[C@H](CCSC)NC(=O)[C@H](NC(=O)[C@H](Cc1c[nH]c2ccccc12)NC(=O)CNC(=O)[C@H](Cc1ccc(O)cc1)NC(=O)[C@H](CS)NC(=O)[C@H](CCC(=O)O)NC(=O)[C@H](CC(N)=O)NC(=O)[C@H](CCSC)NC(=O)[C@@H](Cc1c[nH]c2ccccc12)NC(=O)[C@H](Cc1ccccc1)NC(=O)[C@@H](Cc1ccc(O)cc1)NC(=O)[C@H](CC(N)=O)NC(=O)[C@@H](CC(C)C)NC(=O)[C@H](CCC(=O)O)NC(=O)CNC(=O)[C@H](CCCNC(=N)N)NC(C)=O)[C@H](C)O)C(=O)NCC(=O)N[C@@H](CCCCN)C(N)=O
B3: AP503d (peptide)
peptide: Ac-RGN[dW]N[dE]S[dK]MNEYYGW[dM]L[dM]T[dC]MGR-NH2
modifications: also: disulfide-linked homodimer (Cys20 to Cys20 of other copy), disulfide at 20, other end not in the chain
B4: AP505d (peptide)
peptide: Ac-RGN[dW]C[dE]S[dK]MNEYYGW[dM]L[dM]L[dT]MGR-NH2
modifications: not fully specified (residue 5); printed as RGNwCeSkMNEYYGWmLmLtMGR; also: disulfide-linked homodimer via Cys5
B5: AP502m (peptide)
peptide: Ac-RGN[dW]N[dE]S[dK]M[dN][dE][dY][dY]GW[dM]L[dM]C[dT]MGR-NH2
SMILES: CSCC[C@H](NC(=O)[C@@H](CCCCN)NC(=O)[C@H](CO)NC(=O)[C@@H](CCC(=O)O)NC(=O)[C@H](CC(N)=O)NC(=O)[C@@H](Cc1c[nH]c2ccccc12)NC(=O)[C@H](CC(N)=O)NC(=O)CNC(=O)[C@H](CCCNC(=N)N)NC(C)=O)C(=O)N[C@H](CC(N)=O)C(=O)N[C@H](CCC(=O)O)C(=O)N[C@H](Cc1ccc(O)cc1)C(=O)N[C@H](Cc1ccc(O)cc1)C(=O)NCC(=O)N[C@@H](Cc1c[nH]c2ccccc12)C(=O)N[C@H](CCSC)C(=O)N[C@@H](CC(C)C)C(=O)N[C@H](CCSC)C(=O)N[C@@H](CS)C(=O)N[C@@H](C(=O)N[C@@H](CCSC)C(=O)NCC(=O)N[C@@H](CCCNC(=N)N)C(N)=O)[C@H](C)O
B6: AP504d (peptide)
peptide: Ac-RGN[dC]N[dE]S[dK]MNEYYGW[dM]L[dM]L[dT]MGR-NH2
modifications: also: disulfide-linked homodimer (Cys4 to Cys4 of other copy), disulfide at 4, other end not in the chain
B7: AP506m (peptide)
peptide: Ac-[dR]G[dN]W[dN]E[dS]K[dM][dN][dE][dY][dY]G[dW]M[dL]M[dC]T[dM]G[dR]-NH2
SMILES: CSCC[C@H](NC(=O)[C@@H](Cc1c[nH]c2ccccc12)NC(=O)CNC(=O)[C@@H](Cc1ccc(O)cc1)NC(=O)[C@@H](Cc1ccc(O)cc1)NC(=O)[C@@H](CCC(=O)O)NC(=O)[C@@H](CC(N)=O)NC(=O)[C@@H](CCSC)NC(=O)[C@H](CCCCN)NC(=O)[C@@H](CO)NC(=O)[C@H](CCC(=O)O)NC(=O)[C@@H](CC(N)=O)NC(=O)[C@H](Cc1c[nH]c2ccccc12)NC(=O)[C@@H](CC(N)=O)NC(=O)CNC(=O)[C@@H](CCCNC(=N)N)NC(C)=O)C(=O)N[C@H](CC(C)C)C(=O)N[C@@H](CCSC)C(=O)N[C@H](CS)C(=O)N[C@H](C(=O)N[C@H](CCSC)C(=O)NCC(=O)N[C@H](CCCNC(=N)N)C(N)=O)[C@@H](C)O
B8: AP504m (peptide)
peptide: Ac-RGN[dC]N[dE]S[dK]MNEYYGW[dM]L[dM]L[dT]MGR-NH2
SMILES: CSCC[C@H](NC(=O)[C@@H](CCCCN)NC(=O)[C@H](CO)NC(=O)[C@@H](CCC(=O)O)NC(=O)[C@H](CC(N)=O)NC(=O)[C@@H](CS)NC(=O)[C@H](CC(N)=O)NC(=O)CNC(=O)[C@H](CCCNC(=N)N)NC(C)=O)C(=O)N[C@@H](CC(N)=O)C(=O)N[C@@H](CCC(=O)O)C(=O)N[C@@H](Cc1ccc(O)cc1)C(=O)N[C@@H](Cc1ccc(O)cc1)C(=O)NCC(=O)N[C@@H](Cc1c[nH]c2ccccc12)C(=O)N[C@H](CCSC)C(=O)N[C@@H](CC(C)C)C(=O)N[C@H](CCSC)C(=O)N[C@@H](CC(C)C)C(=O)N[C@@H](C(=O)N[C@@H](CCSC)C(=O)NCC(=O)N[C@@H](CCCNC(=N)N)C(N)=O)[C@H](C)O
B9: AP536m (peptide)
peptide: Ac-RGE[dL]N[dY]F[dW]MNEYYGW[dT]C[dN]M[dR]MGK-NH2
SMILES: CSCC[C@H](NC(=O)[C@@H](CCCNC(=N)N)NC(=O)[C@H](CCSC)NC(=O)[C@@H](CC(N)=O)NC(=O)[C@H](CS)NC(=O)[C@H](NC(=O)[C@H](Cc1c[nH]c2ccccc12)NC(=O)CNC(=O)[C@H](Cc1ccc(O)cc1)NC(=O)[C@H](Cc1ccc(O)cc1)NC(=O)[C@H](CCC(=O)O)NC(=O)[C@H](CC(N)=O)NC(=O)[C@H](CCSC)NC(=O)[C@@H](Cc1c[nH]c2ccccc12)NC(=O)[C@H](Cc1ccccc1)NC(=O)[C@@H](Cc1ccc(O)cc1)NC(=O)[C@H](CC(N)=O)NC(=O)[C@@H](CC(C)C)NC(=O)[C@H](CCC(=O)O)NC(=O)CNC(=O)[C@H](CCCNC(=N)N)NC(C)=O)[C@H](C)O)C(=O)NCC(=O)N[C@@H](CCCCN)C(N)=O

target: Aβ42 (UniProt P05067 672-713); experiment: cell-based or functional assay
Sequence (P05067 672-713 limits assumed): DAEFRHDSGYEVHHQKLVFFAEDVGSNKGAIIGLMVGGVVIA

Going from B1 to B2, the “% inhibition of fibril formation (ThT), AP:Aβ42 1:1” value falls from 61.8% to 54.2%.

B3 and B4 are the same in “% inhibition of fibril formation (ThT), AP:Aβ42 1:1” value: 100% for the first, 100% for the second.

First: Ac-RGN[dW]C[dE]S[dK]MNEYYGW[dM]L[dM]L[dT]MGR-NH2 (not fully specified (residue 5); printed as RGNwCeSkMNEYYGWmLmLtMGR) [AP505m]
Second: B5
The “% inhibition of fibril formation (ThT), AP:Aβ42 1:1” value of the first is higher: 26.8% for the first, 23.8% for the second.

B6 and Ac-RGE[dL]N[dY]F[dW]MNEYYGW[dT]C[dN]M[dR]MGK-NH2 (also: homodimer: Cys17 disulfide-bonded to Cys17 of other copy) [AP536d] are the same in “% inhibition of fibril formation (ThT), AP:Aβ42 1:1” value: 100% for the first, 100% for the second.

Going from Ac-RGN[dW]N[dE]S[dK]MNEYYGW[dM]L[dM]C[dT]MGR-NH2 (also: disulfide-linked homodimer via Cys19) [AP501d] to B7, the “% inhibition of fibril formation (ThT), AP:Aβ42 1:1” value falls from 90% to 67.6%.

First: B8
Second: Ac-RGN[dW]N[dE]S[dK]M[dN][dE][dY][dY]GW[dM]L[dM]C[dT]MGR-NH2 (also: disulfide-linked homodimer via Cys19) [AP502d]
The “% inhibition of fibril formation (ThT), AP:Aβ42 1:1” value of the first is lower: 30% for the first, 100% for the second.

First: B9
Second: Ac-RGE[dL]N[dY]F[dW]MNECYGW[dT]M[dN]M[dR]MGK-NH2 (also: homodimer: Cys12 disulfide-bonded to Cys12 of other copy) [AP537d]
The “% inhibition of fibril formation (ThT), AP:Aβ42 1:1” value of the first is lower: 74.1% for the first, 90.2% for the second.

First: B1
Second: B2
The “% inhibition of fibril formation (ThT), AP:Aβ42 1:10” value of the first is higher: 16.2% for the first, 0% for the second.

Going from B3 to B4, the “% inhibition of fibril formation (ThT), AP:Aβ42 1:10” value falls from 100% to 79.5%.

Compared with Ac-RGN[dW]C[dE]S[dK]MNEYYGW[dM]L[dM]L[dT]MGR-NH2 (not fully specified (residue 5); printed as RGNwCeSkMNEYYGWmLmLtMGR) [AP505m], B5 is lower in “% inhibition of fibril formation (ThT), AP:Aβ42 1:10” value: 16.4% for the first, 0% for the second.

First: B6
Second: Ac-RGE[dL]N[dY]F[dW]MNEYYGW[dT]C[dN]M[dR]MGK-NH2 (also: homodimer: Cys17 disulfide-bonded to Cys17 of other copy) [AP536d]
The “% inhibition of fibril formation (ThT), AP:Aβ42 1:10” value of the first is higher: 100% for the first, 85.2% for the second.

First: Ac-RGN[dW]N[dE]S[dK]MNEYYGW[dM]L[dM]C[dT]MGR-NH2 (also: disulfide-linked homodimer via Cys19) [AP501d]
Second: B7
The “% inhibition of fibril formation (ThT), AP:Aβ42 1:10” value of the first is higher: 81.4% for the first, 0% for the second.

Compared with B8, Ac-RGN[dW]N[dE]S[dK]M[dN][dE][dY][dY]GW[dM]L[dM]C[dT]MGR-NH2 (also: disulfide-linked homodimer via Cys19) [AP502d] is higher in “% inhibition of fibril formation (ThT), AP:Aβ42 1:10” value: 19.2% for the first, 88.4% for the second.

Compared with B9, Ac-RGE[dL]N[dY]F[dW]MNECYGW[dT]M[dN]M[dR]MGK-NH2 (also: homodimer: Cys12 disulfide-bonded to Cys12 of other copy) [AP537d] is higher in “% inhibition of fibril formation (ThT), AP:Aβ42 1:10” value: 21.4% for the first, 82.3% for the second.

B1 and B2 are the same in “% inhibition of fibril formation (ThT), AP:Aβ42 1:100” value (shortened to “% inhibition … AP:Aβ42 1:100”): 0% for the first, 0% for the second.

Going from B3 to B4, the “% inhibition … AP:Aβ42 1:100” value falls from 70.1% to 51.4%.

Ac-RGN[dW]C[dE]S[dK]MNEYYGW[dM]L[dM]L[dT]MGR-NH2 (not fully specified (residue 5); printed as RGNwCeSkMNEYYGWmLmLtMGR) [AP505m] and B5 are the same in “% inhibition … AP:Aβ42 1:100” value: 0% for the first, 0% for the second.

First: B6
Second: Ac-RGE[dL]N[dY]F[dW]MNEYYGW[dT]C[dN]M[dR]MGK-NH2 (also: homodimer: Cys17 disulfide-bonded to Cys17 of other copy) [AP536d]
The “% inhibition … AP:Aβ42 1:100” value of the first is higher: 64.3% for the first, 43.1% for the second.

First: Ac-RGN[dW]N[dE]S[dK]MNEYYGW[dM]L[dM]C[dT]MGR-NH2 (also: disulfide-linked homodimer via Cys19) [AP501d]
Second: B7
The “% inhibition … AP:Aβ42 1:100” value of the first is higher: 48.2% for the first, 0% for the second.

First: B8
Second: Ac-RGN[dW]N[dE]S[dK]M[dN][dE][dY][dY]GW[dM]L[dM]C[dT]MGR-NH2 (also: disulfide-linked homodimer via Cys19) [AP502d]
The “% inhibition … AP:Aβ42 1:100” value of the first is lower: 0% for the first, 47.1% for the second.

Compared with B9, Ac-RGE[dL]N[dY]F[dW]MNECYGW[dT]M[dN]M[dR]MGK-NH2 (also: homodimer: Cys12 disulfide-bonded to Cys12 of other copy) [AP537d] is higher in “% inhibition … AP:Aβ42 1:100” value: 0% for the first, 72% for the second.
